Laboratory results published in paper PMC10502012 (2023).
No end group written: not given here. PEG = not defined here; Cy5 = Cy5 dye

target: chicken PHT1 (purified, wild type) (chicken); test: not given
Sequence (chain, as listed by the source): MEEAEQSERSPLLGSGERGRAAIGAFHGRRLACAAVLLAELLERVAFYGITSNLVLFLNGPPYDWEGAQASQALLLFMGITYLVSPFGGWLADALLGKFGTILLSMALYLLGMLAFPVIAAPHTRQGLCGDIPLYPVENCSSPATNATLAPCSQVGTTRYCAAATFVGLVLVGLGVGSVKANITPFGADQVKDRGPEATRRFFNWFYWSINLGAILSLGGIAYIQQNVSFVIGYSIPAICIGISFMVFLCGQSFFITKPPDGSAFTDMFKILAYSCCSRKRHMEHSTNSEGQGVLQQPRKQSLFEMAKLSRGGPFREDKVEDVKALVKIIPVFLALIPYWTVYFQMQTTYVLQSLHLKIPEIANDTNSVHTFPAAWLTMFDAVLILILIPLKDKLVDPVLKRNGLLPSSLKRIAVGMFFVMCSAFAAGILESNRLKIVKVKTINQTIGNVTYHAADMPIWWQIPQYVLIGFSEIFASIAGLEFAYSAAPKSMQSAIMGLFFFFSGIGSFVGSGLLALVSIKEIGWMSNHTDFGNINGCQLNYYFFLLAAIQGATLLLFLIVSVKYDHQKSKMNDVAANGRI

Binder | Kd [nM]
MLSEGYLYRIAYLCEDSELCT [TASL peptide with a length of 21 residues] | 4050
MLSEGYLYRIAYLCE [TASL peptide with a length of 15 residues] | 1760
MLSEGYLYRIAYLCEDS [TASL peptide with a length of 17 residues] | 1350

target: chicken PHT1 (purified, wild type) (chicken); test: not given; remark: another data set of the same source

Binder | Kd [nM]
MLSEGALYRIAYL [TASL 1-13 Y6A] | 1530
MLAEGYLYRIAYL [TASL 1-13 S3A] | 690
MLSEGYAYRIAYL [TASL 1-13 L7A] | 310
SEGYLYRIAYL [TASL 3-13] | 7630
ALSEGYLYRIAYL [TASL 1-13 M1A] | 15400
MLSEGYLARIAYL [TASL 1-13 Y8A] | 2120
MLSEGYLYRIAYLGSGS [TASL 1-13-GSGS] | 580
MLSEGYLYRIAYLGS [TASL 1-13-GS] | 710
MLSEGYLYRIAYLA [TASL 1-14 C14A] | 400
MASEGYLYRIAYL [TASL 1-13 L2A] | 7280
LSEGYLYRIAYL [TASL 2-13] | 9110
EGYLYRIAYL [TASL 4-13] | 10500
MLSEGYLYRIAY [TASL 1-12] | 1740
MLSEGYLYAIAYL [TASL 1-13 R9A] | 3360
MLSEGYLYRIAYLGSGSGS [TASL 1-13-GSGSGS] | 410

target: chicken PHT1 (purified, wild type) (chicken); test: MST

Binder | Kd [nM]
MLSEGYLYRIAYL-{PEG-Cy5} (reading uncertain) [fluorescently labeled TASL_(1-13) peptide] | 361
